Reference: publication PMC10992996, “Human CRB1 and CRB2 form homo- and heteromeric protein complexes in the retina” (Life Science Alliance, 2024)

Molecular target: T1, CRB1-FLAG p.Y1161C (human, UniProt P82279 26-1406, p.Y1161C)
T1 construct: Crumbs homolog 1, canonical form, human, cDNA NM_202153 as printed, with a patient missense mutation; Made by site-directed mutagenesis of m1; also called CRB1 p.Y1161C; CRB1-FLAG MT; source: HEK293T, transfected, in lysate; not shown: Strep-Strep-FLAG, N-terminal, kept
T1 sequence (looked up): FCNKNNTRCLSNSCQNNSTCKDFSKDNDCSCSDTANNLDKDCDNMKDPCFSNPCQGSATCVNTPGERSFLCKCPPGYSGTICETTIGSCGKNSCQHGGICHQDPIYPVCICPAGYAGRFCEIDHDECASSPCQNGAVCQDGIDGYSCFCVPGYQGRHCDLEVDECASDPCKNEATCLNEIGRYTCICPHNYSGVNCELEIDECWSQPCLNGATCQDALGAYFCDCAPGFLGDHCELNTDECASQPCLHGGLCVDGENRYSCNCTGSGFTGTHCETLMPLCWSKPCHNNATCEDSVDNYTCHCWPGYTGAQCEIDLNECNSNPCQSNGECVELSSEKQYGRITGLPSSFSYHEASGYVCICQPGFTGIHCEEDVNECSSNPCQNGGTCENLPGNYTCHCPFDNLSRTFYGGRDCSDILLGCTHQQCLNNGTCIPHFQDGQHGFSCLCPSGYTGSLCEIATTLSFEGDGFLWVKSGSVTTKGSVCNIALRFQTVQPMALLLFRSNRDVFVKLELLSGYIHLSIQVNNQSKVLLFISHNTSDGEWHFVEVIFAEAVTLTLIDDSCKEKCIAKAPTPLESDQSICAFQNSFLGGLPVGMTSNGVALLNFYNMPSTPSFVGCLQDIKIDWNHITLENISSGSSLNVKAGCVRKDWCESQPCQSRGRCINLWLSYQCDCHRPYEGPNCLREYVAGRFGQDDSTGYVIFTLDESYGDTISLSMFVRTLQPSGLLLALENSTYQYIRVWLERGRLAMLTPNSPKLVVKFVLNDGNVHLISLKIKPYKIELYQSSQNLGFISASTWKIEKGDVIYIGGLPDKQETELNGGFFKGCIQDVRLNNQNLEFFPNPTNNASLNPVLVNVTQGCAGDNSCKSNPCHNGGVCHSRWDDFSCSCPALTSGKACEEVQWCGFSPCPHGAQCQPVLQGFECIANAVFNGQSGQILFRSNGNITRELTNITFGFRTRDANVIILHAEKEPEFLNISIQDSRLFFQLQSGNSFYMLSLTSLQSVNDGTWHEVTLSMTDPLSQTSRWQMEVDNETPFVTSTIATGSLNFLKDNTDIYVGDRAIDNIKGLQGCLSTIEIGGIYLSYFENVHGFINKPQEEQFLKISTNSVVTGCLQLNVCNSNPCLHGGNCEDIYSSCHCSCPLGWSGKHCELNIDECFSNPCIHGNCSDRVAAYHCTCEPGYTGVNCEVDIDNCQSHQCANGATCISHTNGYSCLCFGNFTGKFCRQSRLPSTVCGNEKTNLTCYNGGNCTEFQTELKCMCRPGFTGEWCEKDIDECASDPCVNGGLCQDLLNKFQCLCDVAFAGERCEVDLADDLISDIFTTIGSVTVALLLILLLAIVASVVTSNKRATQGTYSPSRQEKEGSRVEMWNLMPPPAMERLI
Test: co-IP; HEK293T cells co-transfected pairwise with a FLAG and an HA construct, 48 h; lysis in TBS (30 mM Tris-HCl pH 7.4, 150 mM NaCl) with 0.5% Nonidet P40; FLAG-IP on ANTI-FLAG M2 Affinity Gel 60-90 min at 4°C, elution with FLAG peptide; Western blot with HA and FLAG antibodies; for mutants HA/FLAG signal in eluates relative to WT, three biological replicates
Settings: partners not purified

B1: Human canonical CRB2 (Crumbs homolog 2) (natural protein)
chain: not shown
notes: Crumbs homolog 2, human, cDNA NM_173689; Stood as bait (FLAG copy) and as prey (HA copy) in the pairwise co-IP matrix; each copy carries only one of the two tags; The FLAG copy was the bait of the mass spectrometry pull-downs; also called CRB2-FLAG; CRB2-HA; source: HEK293T, transfected, in lysate (co-IP); HEK293T, transfected, FLAG-IP on beads, washed and purified with 0.01% SDS (retina …)
- percent reduction of the interaction relative to CRB1 WT: 11%
